One experiment concerns the target T1, rat ALK-1 cell surface (rat, UniProt P80203).
T1 chain: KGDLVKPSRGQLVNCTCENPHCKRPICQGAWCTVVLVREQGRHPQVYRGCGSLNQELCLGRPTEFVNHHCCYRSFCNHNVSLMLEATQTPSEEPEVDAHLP
The experiment in a line: FACS. (A flow cytometer gives signals particle by particle.)

The target in experiment [1] is T2, cynomolgus ALK-1 cell surface (cynomolgus monkey).
T2 chain: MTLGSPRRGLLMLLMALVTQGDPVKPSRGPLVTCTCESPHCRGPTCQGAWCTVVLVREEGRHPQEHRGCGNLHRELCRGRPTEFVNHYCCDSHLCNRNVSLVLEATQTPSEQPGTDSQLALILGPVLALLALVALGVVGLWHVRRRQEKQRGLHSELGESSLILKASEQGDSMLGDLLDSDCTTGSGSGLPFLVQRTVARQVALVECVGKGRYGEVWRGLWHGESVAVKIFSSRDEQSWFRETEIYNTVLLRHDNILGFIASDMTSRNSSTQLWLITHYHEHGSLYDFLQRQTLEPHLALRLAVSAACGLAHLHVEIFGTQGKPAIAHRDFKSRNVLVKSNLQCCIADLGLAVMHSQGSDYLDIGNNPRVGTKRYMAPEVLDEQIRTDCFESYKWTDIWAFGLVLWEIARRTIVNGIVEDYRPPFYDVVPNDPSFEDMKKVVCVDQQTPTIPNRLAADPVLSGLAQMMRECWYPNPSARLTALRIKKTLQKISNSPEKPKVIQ
The experiment in a line: FACS.

Experiment [2] deals with T2, cynomolgus ALK-1 cell surface. The experiment in a line: FACS.
A further experiment deals with human ALK-1/Fc (human, UniProt P37023). The experiment in a line: SPR, bivalent. A general note: In SPR one partner is held on a chip, and binding of the other changes the refractive index at the surface.
A further experiment concerns the target T3, cynomolgus ALK-1/Fc (cynomolgus monkey).
T3 chain: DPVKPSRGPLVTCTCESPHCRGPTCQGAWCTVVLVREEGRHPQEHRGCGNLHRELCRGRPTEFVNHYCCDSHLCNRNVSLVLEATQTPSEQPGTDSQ
The experiment in a line: SPR, bivalent.

Positions count from the first letter of the chain named. Names may count otherwise. Like-named read-outs stand apart in the source and are kept apart here.

The record followed here is US9221915 (dated 2015).

B1: 1.12.1 (antibody, V domains shown)
VH: QVQLQESGPGLVKPSQTLSLTCTVSGGSMSSGEYYWNWIRQHPGKGLEWIGYIYYSGSTYYNPSLKSRVTISVDTSKNQFSLKLSSVTAADTAVYYCARESVAGFDYWGQGTLVTVSS
VL: not shown
Consider B1, for which the Kd with rat ALK-1 cell surface was over 100 nM; in experiment [1] it was 2 nM; in experiment [2] it was 2 nM.

B2: 1.162.1 (antibody, V domains shown)
VH: B1 VH with T21I, M29I, N37S, V69L, S101G, V102I, A103G, G104A, Y107I, L113M
VL: EIVLTQSPGTLSLSPGERATLSCRASQSVSSSYLAWYQQKPGQAPRLLIYGASSRATGIPDRFSGSGSGTDFTLTIIRLDPEDFAVYYCQRYGSSPITFGQGTRLEIK
B2: the Kd in experiment [1] was 3 nM; with human ALK-1/Fc, 0.018 nM; in the experiment with cynomolgus ALK-1/Fc it was 0.062 nM.

B3: 4.72.1 (antibody, V domains shown)
VH: B1 VH with M29I, N37S, Y54F, V73L, V102T, A103D, F105M, Y107V, L113T
VL: B2 VL with Q39R, A52V, I77S, D80E, R91Q, P96M
Consider B3, for which the Kd in experiment [1] was found to be 3.8 nM.

B4: 1.14.2 (antibody, V domains shown)
VH: B1 VH with Q16E, M29V, E33D, H42P, Y60N, S101A, A103S, G104A
VL: B2 VL with S32T, Y37H, A52V, T57S, I59V, I77S, D80E, R91Q
Turning to B4, the Kd was 0.076 nM in the experiment with human ALK-1/Fc and 0.28 nM in the experiment with cynomolgus ALK-1/Fc.

B5: 1.12.1(D19A) (antibody, V domains shown)
VH: B1 VH
VL: not shown
B5 registered a Kd in experiment [2] of 3.8 nM.

B6: 4.62.1 (antibody, V domains shown)
VH: B1 VH with M29I, E33D, V102T, A103D, F105M, Y107V, L113T
VL: not shown
Take B6: the Kd in experiment [1] worked out at 0.78 nM; with cynomolgus ALK-1/Fc, 0.019 nM.

B7: 5.13.1 (antibody, V domains shown)
VH: B1 VH with M29I, E33D, S101G, V102L, A103E, G104A, Y107I, L113M, V116D
VL: B2 VL with G51D, I77S, D80E, R91H, P96L, I97L, Q101G, R104K, L105V
For the molecule B7, in experiment [1], the Kd worked out at 1.6 nM.

B8: 4.58.2 (antibody, V domains shown)
VH: B1 VH with M29I, E33D, D74A, S101A, V102T, A103E
VL: B2 VL with S31T, S32T, I77S, D80E, V86L, R91H, S94T, P96S
With B8, the values for the Kd with human ALK-1/Fc and in the experiment with cynomolgus ALK-1/Fc were 0.04 nM and 0.13 nM, respectively.

B9: 5.13.3 (antibody, V domains shown)
VH: B1 VH with M29I, E33D, S101G, V102L, A103E, G104A, Y107I, L113M, V116D
VL: B2 VL with G51D, I77S, D80E, R91H, P96L, I97L, Q101G, R104K, L105V
With B9, in the experiment with cynomolgus ALK-1/Fc, the Kd stood at 0.19 nM.

B10: 4.24.2 (antibody, V domains shown)
VH: B1 VH with M29I, G32N, E33D, V102T, A103D, F105M, Y107V, L113T
VL: B2 VL with I2N, S32N, R55G, I77S, D80E, R91H
Consider B10, for which the Kd came out at 0.07 nM with human ALK-1/Fc and 0.43 nM with cynomolgus ALK-1/Fc.

B11: 4.68.1 (antibody, V domains shown)
VH: B1 VH with M29I, E33D, S101D, V102I, Y107P
VL: not shown
Molecule B11 gave a Kd in experiment [1] of 9 nM.

B12: 4.24.1 (antibody, V domains shown)
VH: B1 VH with M29I, G32N, E33D, V102T, A103D, F105M, Y107V, L113T
VL: B2 VL with I2N, S32N, R55G, I77S, D80E, R91H
B12 came in with a Kd in experiment [1] of 3.1 nM.

B13: 4.68.2 (antibody, V domains shown)
VH: B1 VH with M29I, E33D, S101D, V102I, Y107P
VL: not shown
Turning to B13, the Kd with cynomolgus ALK-1/Fc is 0.32 nM.

B14: 4.72.2 (antibody, V domains shown)
VH: B1 VH with M29I, N37S, Y54F, V73L, V102T, A103D, F105M, Y107V, L113T
VL: B2 VL with Q39R, A52V, I77S, D80E, R91Q, P96M
Take B14: the Kd in the experiment with human ALK-1/Fc was 0.073 nM; with cynomolgus ALK-1/Fc, 0.28 nM.

B15: 4.38.1 (antibody, V domains shown)
VH: QVQLQESGPGLVKPSQTLSLTCTVSGGSISSGDYYWSWIRQHPGKGLEWIGYIYYSGSTYYNPSLKSRVTISIDTSKNQFSLKLSSVTAADTAVYYCARERDYGGGFDYWGQGTLVTVSS
VL: not shown
Turning to B15, the Kd with human ALK-1/Fc amounted to 0.1 nM; in the experiment with cynomolgus ALK-1/Fc it was 0.15 nM.

B16: 1.183.2 (antibody, V domains shown)
VH: QVQLQESGPGLVKPSETLSLTCTVSGGSISSYYWSWIRQPPGKGLEWIGYIYYSGSTNYNPSLKSRVTISVDTSKNQFSLKLSSVTAADTAVYYCAREDDSSGCPYFDYWGQGTLVTASS
VL: EIVMTQSPATLSVSPGERATLSCRASQSVSSNLAWYQQKPGQAPRVLIYGASTRATGIPVRFSGSGSGTEFTLTISSLQSEDFAVYYCQQYNNWPFTFGPGTKVDIK
Consider B16, for which the Kd with human ALK-1/Fc was found to be 0.22 nM; with cynomolgus ALK-1/Fc it was 1.8 nM.
